Laboratory results: publication PMC9926122, “Kinetochore-microtubule attachment in human cells is regulated by the interaction of a conserved motif of Ska1 with EB1” (The Journal of Biological Chemistry, 2022)

B1: EB1-GST (natural protein, human, UniProt Q15691 1-268, looked up)
chain: MAVNVYSTSVTSDNLSRHDMLAWINESLQLNLTKIEQLCSGAAYCQFMDMLFPGSIALKKVKFQAKLEHEYIQNFKILQAGFKRMGVDKIIPVDKLVKGKFQDNFEFVQWFKKFFDANYDGKDYDPVAARQGQETAVAPSLVAPALNKPKKPLTSSSAAPQRPISTQRTAAAPKAGPGVVRKNPGVGNGDDEAAELMQQVNVLKLTVEDLEKERDFYFGKLRNIELICQENEGENDPVLQRIVDILYATDEGFVIPDEGGPQEEQEEY
notes: also called GST-tagged EB1; source: E. coli BL21 DE3, purified (Glutathione Sepharose)
B2: recombinant EB1 (HS-AFM and microtubule experiments) (natural protein, human, UniProt Q15691 1-268, looked up)
chain: B1 chain
notes: recombinant EB1 with N-terminal calponin homology domains (EB1-N), linker and C-terminal dimer region (EB1-C) seen by HS-AFM; The only EB1 expression construct that the methods describe is GST-tagged EB1 in pGEX 5x3; also called EB1 dimer; source: recombinant
B3: SXIP peptide aptamer (peptide)
peptide: ALNGQSRIPVLKRHTR

What was measured:
Conditions in all cases: both partners purified
6xHis-tagged WT Ska1 [1] = biological target: T1, 6xHis-tagged WT Ska1 (human, UniProt Q96BD8 1-255); experiment: pull-down; competition: EB1-GST preincubated with the SXIP peptide aptamer for 2 h, GSH beads added, then incubated with Ska1 WT protein; rising doses of peptide
T1 construct: WT Ska1 from the plasmid pEC-S-CDF-His Ska1; Probably whole Ska1 (1-255); also called 6xHis Ska1 WT; 6xHis-Ska1; source: E. coli BL21 DE3, purified (Ni2+-NTA)
T1 sequence (Q96BD8 whole entry): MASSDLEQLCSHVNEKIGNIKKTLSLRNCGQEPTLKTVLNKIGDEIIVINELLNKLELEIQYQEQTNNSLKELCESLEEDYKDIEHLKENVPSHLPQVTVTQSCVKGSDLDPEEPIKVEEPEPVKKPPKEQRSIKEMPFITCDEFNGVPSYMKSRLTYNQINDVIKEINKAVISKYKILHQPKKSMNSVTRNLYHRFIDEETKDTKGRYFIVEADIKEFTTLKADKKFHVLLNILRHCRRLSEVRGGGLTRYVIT

6xHis-tagged WT Ska1 [2] = biological target: T1, 6xHis-tagged WT Ska1; experiment: high-speed atomic force microscopy (HS-AFM); proteins (10-30 nM; 10 nM in the frames shown) in BRB80 buffer (80 mM Pipes, 1 mM EGTA, 1 mM MgCl2, pH 6.9) on mica, tapping mode, 150 ms per frame; EB1 alone, Ska1 alone and their mixture
EB1-GST = biological target: B1; experiment: pull-down

B1: binds (6xHis-tagged WT Ska1 [1]).

B2: binds (6xHis-tagged WT Ska1 [2]).

With B3 the “percent reduction of EB1-Ska1 association at 1:5 M ratio of EB1:peptide” value (EB1-GST) was roughly 70%.
